From publication PMC9352680, “A comprehensive thermodynamic model for RNA binding by the Saccharomyces cerevisiae Pumilio protein PUF4”

Target: T1, PUF4 RNA-binding domain (Saccharomyces cerevisiae, UniProt P25339 537-888)
T1 sequence: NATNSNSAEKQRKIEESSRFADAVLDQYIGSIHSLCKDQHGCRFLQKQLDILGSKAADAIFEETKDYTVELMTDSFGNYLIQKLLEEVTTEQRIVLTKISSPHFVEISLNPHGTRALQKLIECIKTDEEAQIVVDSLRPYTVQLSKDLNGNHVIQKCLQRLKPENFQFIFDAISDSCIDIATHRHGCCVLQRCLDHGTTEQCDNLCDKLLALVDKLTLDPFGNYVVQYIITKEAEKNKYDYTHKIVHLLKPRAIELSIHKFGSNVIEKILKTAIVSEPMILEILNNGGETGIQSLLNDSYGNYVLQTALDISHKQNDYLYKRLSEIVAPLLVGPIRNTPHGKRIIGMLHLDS
Assay: Mg; RNA-MaP; 20 mM Na-HEPES pH 7.4, 30 mM KOAc, 0.75 mM MgCl2, 0.1% Tween-20, 5% glycerol, 0.1 mg/mL BSA, 2 mM DTT; 25 C; 0.0125-409.6 nM protein
Details: tags: N-His6-TEV cleaved; C-SNAP kept, Cy3B-labelled; label: tethered on chip by stalled RNA polymerase

Going from UCUCUUUUUAUAUAUAGUUCUCUU (ssRNA) [Id_ii_S1_P3E.3_K3.2_C3.2_[C-2T]_H3.2_A3.1_F3.1_T3.2_[T9G]_[A10T]] to UCUCUUACUAUAUAUACAUCUCUU (ssRNA) [Id_ii_S1_P3E.3_K3.2_C3.2_[C-2A]_[T-1C]_H3.2_A3.1_F3.1_T3.2_[T9C]], the Kd rises from 272 nM to 1290 nM (4.7-fold).

Compared with UCUCUUAUUAUAUAUAUUUCUCUU (ssRNA) [Id_ii_S1_P3E.3_K3.2_C3.2_[C-2A]_H3.2_A3.1_F3.1_T3.2_[A10T]], UCUCUUUUUAUAUAUACAUCUCUU (ssRNA) [Id_ii_S1_P3E.3_K3.2_C3.2_[C-2T]_H3.2_A3.1_F3.1_T3.2_[T9C]] is 3.2-fold higher in Kd: 383 nM for the first, 1210 nM for the second. The first binds more tightly here.

UCUCUUAAUAUAUAUACCUCUCUU (ssRNA) [Id_ii_S1_P3E.3_K3.2_C3.2_[C-2A]_[T-1A]_H3.2_A3.1_F3.1_T3.2_[T9C]_[A10C]] and UCUCUUAUUAUAUAUACCUCUCUU (ssRNA) [Id_ii_S1_P3E.3_K3.2_C3.2_[C-2A]_H3.2_A3.1_F3.1_T3.2_[T9C]_[A10C]] are within 1.5-fold of each other in Kd: 2250 nM for the first, 2290 nM for the second.

Compared with UCUCUUAGUAUAUAUAUCUCUCUU (ssRNA) [Id_ii_S1_P3E.3_K3.2_C3.2_[C-2A]_[T-1G]_H3.2_A3.1_F3.1_T3.2_[A10C]], UCUCUUUUUAUAUAUAUGUCUCUU (ssRNA) [Id_ii_S1_P3E.3_K3.2_C3.2_[C-2T]_H3.2_A3.1_F3.1_T3.2_[A10G]] is 1.6-fold higher in Kd: 652 nM for the first, 1060 nM for the second. The first binds more tightly here.

Going from UCUCUUAGUAUAAUAUCUCUU (ssRNA) [Ib_S1_P4E.1_K4.1_C4.1_H4.1_[T1A]_A4.1_[T7A]_F4.1_T4.1] to UCUCUUACUAUAUAUAAAUCUCUU (ssRNA) [Id_ii_S1_P3E.3_K3.2_C3.2_[C-2A]_[T-1C]_H3.2_A3.1_F3.1_T3.2_[T9A]], the Kd rises from 126 nM to 1360 nM (11-fold).

UCUCUUUAUAUAUAUACGUCUCUU (ssRNA) [Id_ii_S1_P3E.3_K3.2_C3.2_[C-2T]_[T-1A]_H3.2_A3.1_F3.1_T3.2_[T9C]_[A10G]] and UCUCUUAAUAUAUAUAUGUCUCUU (ssRNA) [Id_ii_S1_P3E.3_K3.2_C3.2_[C-2A]_[T-1A]_H3.2_A3.1_F3.1_T3.2_[A10G]] are within 1.5-fold of each other in Kd: 503 nM for the first, 698 nM for the second.

First: UCUCUUUAUAUAUAUAUGUCUCUU (ssRNA) [Id_ii_S1_P3E.3_K3.2_C3.2_[C-2T]_[T-1A]_H3.2_A3.1_F3.1_T3.2_[A10G]]
Second: UCUCUUUUUAUAUAUAAGUCUCUU (ssRNA) [Id_ii_S1_P3E.3_K3.2_C3.2_[C-2T]_H3.2_A3.1_F3.1_T3.2_[T9A]_[A10G]]
The Kd of the first is 3.6-fold lower: 427 nM for the first, 1550 nM for the second.

UCUCUUCGUAUAAUAUCUCUU (ssRNA) [Ib_S1_P4E.1_K4.1_C4.1_H4.1_[T1C]_A4.1_[T7A]_F4.1_T4.1] and UCUCUUUAUAUAUAUACUUCUCUU (ssRNA) [Id_ii_S1_P3E.3_K3.2_C3.2_[C-2T]_[T-1A]_H3.2_A3.1_F3.1_T3.2_[T9C]_[A10T]] are within 1.5-fold of each other in Kd: 131 nM for the first, 172 nM for the second.

UCUCUUAGUAUAUAUAUGUCUCUU (ssRNA) [Id_ii_S1_P3E.3_K3.2_C3.2_[C-2A]_[T-1G]_H3.2_A3.1_F3.1_T3.2_[A10G]] and UCUCUUUCUAUAUAUAUCUCUCUU (ssRNA) [Id_ii_S1_P3E.3_K3.2_C3.2_[C-2T]_[T-1C]_H3.2_A3.1_F3.1_T3.2_[A10C]] are within 1.5-fold of each other in Kd: 502 nM for the first, 602 nM for the second.

First: UCUCUUAGUAUAUAUAGCUCUCUU (ssRNA) [Id_ii_S1_P3E.3_K3.2_C3.2_[C-2A]_[T-1G]_H3.2_A3.1_F3.1_T3.2_[T9G]_[A10C]]
Second: UCUCUUACUAUAUAUAUGUCUCUU (ssRNA) [Id_ii_S1_P3E.3_K3.2_C3.2_[C-2A]_[T-1C]_H3.2_A3.1_F3.1_T3.2_[A10G]]
The Kd of the first is 2-fold lower: 494 nM for the first, 968 nM for the second. The first binds more tightly here.

UCUCUUUUUAUAUAUACCUCUCUU (ssRNA) [Id_ii_S1_P3E.3_K3.2_C3.2_[C-2T]_H3.2_A3.1_F3.1_T3.2_[T9C]_[A10C]] and UCUCUUUUUAUAUAUACGUCUCUU (ssRNA) [Id_ii_S1_P3E.3_K3.2_C3.2_[C-2T]_H3.2_A3.1_F3.1_T3.2_[T9C]_[A10G]] are within 1.5-fold of each other in Kd: 1430 nM for the first, 1560 nM for the second.

Going from UCUCUUUUUAUAUAUAAUUCUCUU (ssRNA) [Id_ii_S1_P3E.3_K3.2_C3.2_[C-2T]_H3.2_A3.1_F3.1_T3.2_[T9A]_[A10T]] to UCUCUUAUUAUAUAUACGUCUCUU (ssRNA) [Id_ii_S1_P3E.3_K3.2_C3.2_[C-2A]_H3.2_A3.1_F3.1_T3.2_[T9C]_[A10G]], the Kd rises from 968 nM to 1860 nM (1.9-fold). The first binds more tightly here.

First: UCUCUUAAUAUAUAUAAAUCUCUU (ssRNA) [Id_ii_S1_P3E.3_K3.2_C3.2_[C-2A]_[T-1A]_H3.2_A3.1_F3.1_T3.2_[T9A]]
Second: UCUCUUUAUAUAUAUAAUUCUCUU (ssRNA) [Id_ii_S1_P3E.3_K3.2_C3.2_[C-2T]_[T-1A]_H3.2_A3.1_F3.1_T3.2_[T9A]_[A10T]]
The Kd of the first is 2-fold higher: 1290 nM for the first, 642 nM for the second. The second binds more tightly here.

UCUCUUCGUAUUUUAUCUCUU (ssRNA) [Ib_S1_P4E.1_K4.1_C4.1_H4.1_[T1C]_A4.1_[A6T]_F4.1_T4.1] and UCUCUUAGUAUAUAUAUUUCUCUU (ssRNA) [Id_ii_S1_P3E.3_K3.2_C3.2_[C-2A]_[T-1G]_H3.2_A3.1_F3.1_T3.2_[A10T]] are within 1.5-fold of each other in Kd: 591 nM for the first, 452 nM for the second.

Compared with UCUCUUAGUAUAUAUAGUUCUCUU (ssRNA) [Id_ii_S1_P3E.3_K3.2_C3.2_[C-2A]_[T-1G]_H3.2_A3.1_F3.1_T3.2_[T9G]_[A10T]], UCUCUUAUUAUAUAUAUCUCUCUU (ssRNA) [Id_ii_S1_P3E.3_K3.2_C3.2_[C-2A]_H3.2_A3.1_F3.1_T3.2_[A10C]] is 6.4-fold higher in Kd: 156 nM for the first, 993 nM for the second. The first binds more tightly here.

UCUCUUUAUAUAUAUAGUUCUCUU (ssRNA) [Id_ii_S1_P3E.3_K3.2_C3.2_[C-2T]_[T-1A]_H3.2_A3.1_F3.1_T3.2_[T9G]_[A10T]] gave a Kd of 140 nM.
